The target of test [1] is Human TGFβ1 (human) (UniProt P01137). In words: SPR (Biacore), apparent KD, 24 RU TGFβ1 immobilized on the chip. (In general: Surface plasmon resonance follows binding to a sensor surface in real time, without labels.)
Test [2] has the same target. In words: SPR (Biacore), apparent KD, 105 RU TGFβ1 immobilized on the chip.
The target is the same in test [3]. Briefly: SPR (Biacore), apparent KD, 544 RU TGFβ1 immobilized on the chip.
The target of test [4] is T1, Human TGFβ1 (human, UniProt P01137 279-390).
For test [5], the target named is T1, Human TGFβ1. Briefly: SPR.
For test [6], the target named is T1, Human TGFβ1. In words: SPR (Biacore), apparent KD, 24 RU TGFβ1 immobilized on the chip.
The target in test [7] is T1, Human TGFβ1. Briefly: SPR (Biacore), apparent KD, 544 RU TGFβ1 immobilized on the chip.
Test [8] has as its target T1, Human TGFβ1. Briefly: SPR (Biacore), apparent KD, 105 RU TGFβ1 immobilized on the chip.
The target of test [9] is T1, Human TGFβ1. In words: cell-based or functional assay.

Where two headings read alike, the source gives them in different places.

T1 sequence (P01137 279-390 limits assumed): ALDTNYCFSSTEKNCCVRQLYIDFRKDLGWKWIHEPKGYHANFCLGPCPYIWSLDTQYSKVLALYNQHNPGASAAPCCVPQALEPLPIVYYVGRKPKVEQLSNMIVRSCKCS
Sequence of Human TGFβ1 (human) (P01137 279-390 limits assumed): as above

On to scFv CAT191 diabody (scFv diabody 5aa), for which the Kd with Human TGFβ1 (human) [1] was found to be 4.1 nM; with Human TGFβ1 (human) [2] it was 3.9 nM; with Human TGFβ1 (human) [3] it was 4.8 nM.

Consider GC1008 (antibody), for which the IC50 (read off the curve), TGFβ1-stimulated IL-11 production (A549 bioassay) in the test with Human TGFβ1 [4] turned out to be 0.01 nM.

B1: Leucine zipper peptide-derived dimer (other)
scFv: EVQLVESGGGVVQPGRSLRLSCAASGFTFSSYGMHWVRQAPGKELEWVAVISYDGSIKYYADSVKGRFTISRDNSKNTLYLQMNSLRAEDTAVYYCARTGEYSGYDTDPQYSWGQGTTVTVSSSGGGSGGGGSGGGGSEIVLTQSPSSLSASVGDRVTITCRSSQGIGDDLGWYQQKPGKAPILLIYGTSTLQSGVPSRFSGSGSGTDFTLTINSLQPEDFATYYCLQDSNYPLTFGGGTRLEIKRAAAHHHHHHGAAEQKLISEEDLNGAAPKPSTPPGSSGELEELLKHLKELLKGPRKGELEELLKHLKELLKGGAPGGHHHHHH
notes: CAT191 scFv fused to tags and a leucine zipper peptide; Expressed in E. coli and only partially purified when tested
In the case of B1, in the test with Human TGFβ1 [5], the binding result was “binds”.

B2: CAT191(scFv) (scFv)
scFv: EVQLVESGGGVVQPGRSLRLSCAASGFTFSSYGMHWVRQAPGKELEWVAVISYDGSIKYYADSVKGRFTISRDNSKNTLYLQMNSLRAEDTAVYYCARTGEYSGYDTDPQYSWGQGTTVTVSSSGGGSGGGGSGGGGSEIVLTQSPSSLSASVGDRVTITCRSSQGIGDDLGWYQQKPGKAPILLIYGTSTLQSGVPSRFSGSGSGTDFTLTINSLQPEDFATYYCLQDSNYPLTFGGGTRLEIK
notes: Parental scFv; also called scFv(CAT191)
As to B2, the results for the Kd with Human TGFβ1 [6], with Human TGFβ1 [7] and with Human TGFβ1 [8] were 1.7 nM, 1.3 nM and 1.6 nM, respectively. For the same molecule, the “IC50 (read off the curve), TGFβ1-stimulated IL-11 production (A549 bioassay)” value with Human TGFβ1 [9] is approximately 0.4 nM.

These data come from patent US20220363740A1 (Sanofi, published 2022).
